Consider four substances from US20240124563A1.

What is called EC50 is the midpoint of the concentration-response curve.

The target in assay [1] is monkey MSLN full-length protein on HEK293T cells (monkey). As to the kind of experiment: FACS, HEK293T-monkey-MSLN cells, antibody 4 nM. On the technique in general: Flow cytometry measures light scatter and fluorescence of single cells or particles in a stream.
Assay [2] has the same target. The experiment in a line: FACS, HEK293T-monkey-MSLN cells, antibody 20 nM.
For assay [3] the target is unchanged. As to the kind of experiment: FACS, HEK293T-monkey-MSLN cells, antibody 0.8 nM.
For assay [4] the target is unchanged. The experiment in a line: FACS, HEK293T-monkey-MSLN cells, antibody 100 nM.
Assay [5] shares this target. As to the kind of experiment: FACS, HEK293T-monkey-MSLN cells, antibody 0.16 nM.
For assay [6] the target is unchanged. The experiment in a line: FACS, HEK293T-monkey-MSLN cells, antibody 0.032 nM.
Assay [7] has the same target. As to the kind of experiment: FACS, HEK293T-monkey-MSLN cells, antibody 0.0064 nM.
Assay [8] shares this target. As to the kind of experiment: FACS, HEK293T-monkey-MSLN cells, antibody 0.00128 nM.
Assay [9] has as its target human MSLN-FL-his protein (human) (UniProt Q13421). As to the kind of experiment: ELISA, coated antigen, 20 nM antibody. For orientation: An ELISA detects its analyte on a solid surface through an enzyme-linked reagent.
The target in assay [10] is human MSLN-R1-his protein (human) (UniProt Q13421). The experiment in a line: ELISA, coated antigen, 100 nM antibody.
Sequence of human MSLN-R1-his protein (human) (Q13421 other isoform, or with tags, fused parts or gaps): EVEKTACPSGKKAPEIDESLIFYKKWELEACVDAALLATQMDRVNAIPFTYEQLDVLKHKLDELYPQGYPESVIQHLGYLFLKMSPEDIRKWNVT
The target in assay [11] is human MSLN-R2-his protein (human) (UniProt Q13421). The experiment in a line: ELISA, coated antigen, 100 nM antibody.
Sequence of human MSLN-R2-his protein (human) (Q13421 other isoform, or with tags, fused parts or gaps): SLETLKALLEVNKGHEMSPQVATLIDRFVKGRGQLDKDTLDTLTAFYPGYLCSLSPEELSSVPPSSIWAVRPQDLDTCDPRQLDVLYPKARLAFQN
For assay [12], the target named is human MSLN-FL-his protein (human) (UniProt Q13421). As to the kind of experiment: ELISA, coated antigen, 0.2 nM antibody.
Sequence of human MSLN-FL-his protein (human) (Q13421 other isoform, or with tags, fused parts or gaps): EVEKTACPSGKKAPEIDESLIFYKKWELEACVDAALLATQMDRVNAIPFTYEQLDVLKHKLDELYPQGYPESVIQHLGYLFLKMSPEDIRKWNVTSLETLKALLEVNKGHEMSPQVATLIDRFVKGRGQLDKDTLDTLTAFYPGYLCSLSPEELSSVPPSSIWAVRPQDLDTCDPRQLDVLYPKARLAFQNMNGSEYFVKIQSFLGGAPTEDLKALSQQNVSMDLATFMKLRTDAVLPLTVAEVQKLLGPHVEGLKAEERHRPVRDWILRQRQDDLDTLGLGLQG
Assay [13] has as its target monkey MSLN full-length protein on HEK293T cells (monkey). As to the kind of experiment: FACS, HEK293T-monkey MSLN cells.
Assay [14] addresses human MSLN-R3-rFc protein (human) (UniProt Q13421). The experiment in a line: ELISA, antibody 4 nM.
The target is the same in assay [15]. As to the kind of experiment: ELISA, antibody 1 nM.
Assay [16] shares this target. The experiment in a line: ELISA, antibody 20 nM.
Assay [17] has the same target. As to the kind of experiment: ELISA, antibody 100 nM.
The target is the same in assay [18]. As to the kind of experiment: ELISA, antibody 0.0064 nM.

As to “Tab131 (m912, scFv-hIgG1 Fc) (Fc fusion)”, the FACS signal (MFI) worked out at 86 in [1]; 85 in assay [2]; 87 in assay [3]; 87 in assay [4]; 83 in assay [5]; 106 in assay [6]. The FACS signal (MFI) in [7] is 85; in [8], 93.
Consider hIgG1 (IgG control) (antibody), for which the OD450 nm came out at 0.28 OD450 nm in assay [9], 0.2 OD450 nm in [10], 0.16 OD450 nm in [11] and 0.24 OD450 nm in [12].
In assay [13], “Tab108 (YP218, scFv-hIgG1 Fc) (Fc fusion)” yielded an EC50 of 830 pM and a Max MFI of 4240. This substance also yielded an OD450 nm in assay [10] of 0.12 OD450 nm.
As to “anti-human MSLN antibody (purchased from Acro, Cat. No. MSN-M30)”, the OD450 nm in assay [14] turned out to be 0.23; in assay [15], 0.11; in assay [16], 0.86; in [17] it was 1.11; in assay [18] it was 0.16.
